Measured values: PMC3090270 (Structure (London, England : 1993), 2010)

Legend:
Test in all cases: fluorescence polarisation
[1] = molecular target: Bovine full-length RIα Y19A (bovine)
[2] = molecular target: Bovine full-length RIα C37A (bovine)
[3] = molecular target: Bovine full-length RIα C16A (bovine)
[4] = molecular target: Bovine full-length RIα H23A (bovine)
[5] = molecular target: Bovine full-length RIα, wild type (bovine, UniProt P00514 1-380)
Chain of Bovine full-length RIα, wild type (P00514 whole entry): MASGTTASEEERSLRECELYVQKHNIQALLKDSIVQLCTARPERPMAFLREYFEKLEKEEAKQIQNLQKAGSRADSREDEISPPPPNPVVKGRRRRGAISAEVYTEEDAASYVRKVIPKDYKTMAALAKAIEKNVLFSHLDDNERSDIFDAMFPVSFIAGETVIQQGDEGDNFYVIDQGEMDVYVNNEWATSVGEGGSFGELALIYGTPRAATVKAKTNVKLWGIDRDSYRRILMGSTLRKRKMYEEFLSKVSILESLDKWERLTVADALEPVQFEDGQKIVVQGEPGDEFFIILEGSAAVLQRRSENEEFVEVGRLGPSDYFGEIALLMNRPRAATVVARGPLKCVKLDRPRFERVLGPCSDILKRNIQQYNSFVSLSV

- Kd [1]: 1330 nM
- Kd [2]: 745 nM
- Kd [3]: 126 nM
- Kd [4]: 198 nM
- Kd [5]: 48 nM
B1: D-AKAP2 AKB peptide (residues 623-650), last residue changed to Cys, fluorescently labeled (peptide)
chain: VQGNTDEAQEELAWKIAKMIVSDVMQQC
modifications: fluorescin-5-maleimide or tetramethylrhodamine-5-maleimide on the Cys that replaces the last residue
